No end group written: not given here.
Biological target: Prostate-specific membrane antigen (PSMA) (human), Q04609
Test: apparent Kd, flow cytometry, FAM-labeled peptide on PSMA-positive LNCaP cells, 4 C
Conditions: remark: other sources report otherwise

Prostate-specific membrane antigen (PSMA) (human), Q04609, sequence (Q04609 whole entry): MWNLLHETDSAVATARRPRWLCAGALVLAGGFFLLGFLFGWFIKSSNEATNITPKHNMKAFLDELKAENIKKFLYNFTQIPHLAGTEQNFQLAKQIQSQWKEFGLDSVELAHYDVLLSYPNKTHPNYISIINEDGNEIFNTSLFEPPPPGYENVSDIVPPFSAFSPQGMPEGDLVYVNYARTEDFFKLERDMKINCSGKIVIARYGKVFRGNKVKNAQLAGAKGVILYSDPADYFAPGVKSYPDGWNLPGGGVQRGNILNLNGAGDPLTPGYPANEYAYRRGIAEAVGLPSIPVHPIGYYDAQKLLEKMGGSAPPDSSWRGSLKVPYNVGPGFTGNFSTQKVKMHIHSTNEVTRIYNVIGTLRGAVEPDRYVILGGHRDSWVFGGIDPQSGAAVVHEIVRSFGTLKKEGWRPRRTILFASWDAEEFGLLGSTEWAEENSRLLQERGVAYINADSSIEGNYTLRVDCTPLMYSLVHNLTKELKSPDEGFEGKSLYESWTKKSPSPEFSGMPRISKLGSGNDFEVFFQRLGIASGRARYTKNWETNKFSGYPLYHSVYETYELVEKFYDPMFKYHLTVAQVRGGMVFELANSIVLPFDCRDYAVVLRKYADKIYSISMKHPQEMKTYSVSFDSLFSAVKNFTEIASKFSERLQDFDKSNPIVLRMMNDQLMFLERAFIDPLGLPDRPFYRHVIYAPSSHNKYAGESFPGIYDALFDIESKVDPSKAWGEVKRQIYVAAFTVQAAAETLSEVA

- Kd: 23.6 µM
Binder: WQPDTAHHWATL (also: FAM label, position not given here) [FAM-labeled WQP peptide …]
